Data taken from patent US20120237496.

Tests used:
[1] = tested on: Angiotensin (fluorescein/Lys-biotin labelled synthetic peptide)
[2] = tested on: Neurotensin (fluorescein/Lys-biotin labelled synthetic peptide)
[3] = tested on: T1, ANP (fluorescein/Lys-biotin labelled synthetic peptide)
T1 sequence: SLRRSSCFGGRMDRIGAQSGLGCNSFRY

[4] = tested on: A-beta 1-40 (fluorescein/Lys-biotin labelled synthetic peptide)
[5] = tested on: Endothelin-1 (average of the 1a and 1b isoforms)
[6] = tested on: Glucagon (fluorescein/Lys-biotin labelled synthetic peptide)
Sequence of Glucagon (fluorescein/Lys-biotin labelled synthetic peptide) (chain, as listed by the source): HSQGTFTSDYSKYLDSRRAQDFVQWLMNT

[7] = tested on: GLP-1 (fluorescein/Lys-biotin labelled synthetic peptide)
Sequence of GLP-1 (fluorescein/Lys-biotin labelled synthetic peptide) (chain, as listed by the source): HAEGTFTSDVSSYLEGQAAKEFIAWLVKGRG

[8] = tested on: Bradykinin (fluorescein/Lys-biotin labelled synthetic peptide)
[9] = tested on: GIP (fluorescein/Lys-biotin labelled synthetic peptide)
Sequence of GIP (fluorescein/Lys-biotin labelled synthetic peptide) (chain, as listed by the source): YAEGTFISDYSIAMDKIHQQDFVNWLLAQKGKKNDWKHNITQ

[10] = tested on: T2, Somatostatin 1-28 (fluorescein/Lys-biotin labelled synthetic peptide)
T2 sequence: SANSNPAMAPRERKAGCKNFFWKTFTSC

Sequence of A-beta 1-40 (fluorescein/Lys-biotin labelled synthetic peptide) (peptide, as listed by the source): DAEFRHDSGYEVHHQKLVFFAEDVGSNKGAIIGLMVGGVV

HSA-Nep-G399V/G714K was tested, and the kcat/KM [1] was 14000 M⁻¹ s⁻¹, the ratio of kcat/KM, mutant vs wild type [1] was 0.012 and the kcat/KM [2] was 2600 M⁻¹ s⁻¹. For the same substance, the ratio of kcat/KM, mutant vs wild type [2] was 0.004, the kcat/KM [3] was 42000 M⁻¹ s⁻¹ and the ratio of kcat/KM, mutant vs wild type [3] was 0.15. For the same substance, the kcat/KM [4] was 55000 M⁻¹ s⁻¹, the ratio of kcat/KM, mutant vs wild type [4] was 4.2 and the kcat/KM [5] was 62000 M⁻¹ s⁻¹. The ratio of kcat/KM, mutant vs wild type [5] was 0.21, the kcat/KM [6] was 88000 M⁻¹ s⁻¹ and the ratio of kcat/KM, mutant vs wild type [6] was 0.35. It also gave a kcat/KM [7] of 36000 M⁻¹ s⁻¹, a ratio of kcat/KM, mutant vs wild type [7] of 0.25 and a kcat/KM [8] of 85 M⁻¹ s⁻¹. It also gave a ratio of kcat/KM, mutant vs wild type [8] of 0.00017, a kcat/KM [9] of 130 M⁻¹ s⁻¹ and a ratio of kcat/KM, mutant vs wild type [9] of 0.28. For the same substance, the kcat/KM [10] was 3000 M⁻¹ s⁻¹ and the ratio of kcat/KM, mutant vs wild type [10] was 0.0054.
